Source: the supplement of paper PMC9170038

System: K4 kissing-loop RNA reporter
Assay: apparent KD of K4 kissing-loop reporter; higher = weaker reporter binding
Conditions: Eterna round: R107
Procedure: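 RNA-MaP round R107: designed RNA switches with theophylline, tryptophan, arginine or FMN aptamers are transcribed on-chip within common flanks. They are titrated with a labelled K4 kissing-loop RNA reporter in RNA-MaP buffer (100 mM Tris pH 7.5, 80 mM KCl, 4 mM MgCl2), without ligand or with the indicated ligand. Median apparent KD per design.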

[1] = input ligand: theophylline 20 uM
[2] = input ligand: tryptophan 2.4 mM
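Note: bound reporter read as fluorescence of individual clusters on recovered sequencing chips by microscopy, with normalized cluster intensities fitted with a binding model.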

With “ACGUGUCACUGAAGGAGCGUCUACCGAAUACGAGUGAUGUUCGUACACCACUGAUAUAGUGGACAGGUAGGUCGCAGUGAUACGU [Arg B Ex t3]” as the sequence, how does the “apparent KD of K4 kissing-loop reporter” value (input ligand: FMN 200 uM) read?
Its value is 120 nM.

And the “apparent KD of K4 kissing-loop reporter” value (input ligand: arginine 13.2 mM)?
The value was 101 nM.

And the “apparent KD of K4 kissing-loop reporter” value (input ligand: none)?
The value was 122 nM.

What about the “apparent KD of K4 kissing-loop reporter” value [1] of the same sequence?
The value was 102 nM.

And the “apparent KD of K4 kissing-loop reporter” value [2]?
Its value is 107 nM.

Which results are given for “AGGAUCCACCAGUGAUGUUGGAAAUACAUCAAGGAUAUGACGAAAGUCAGAAGGUGGUAGACUGGACAAAGUCCAGUUGGAUCCA [KL-SSFMN-A18]”?
apparent KD of K4 kissing-loop reporter (input ligand: FMN 200 uM): 135 nM; apparent KD of K4 kissing-loop reporter (input ligand: arginine 13.2 mM): 54.9 nM; apparent KD of K4 kissing-loop reporter (input ligand: none): 62.7 nM; apparent KD of K4 kissing-loop reporter [1]: 112 nM; apparent KD of K4 kissing-loop reporter [2]: 66.4 nM

How did the “apparent KD of K4 kissing-loop reporter” value (input ligand: FMN 200 uM) turn out when “AAGUGUGUGGCGGCCGCCACUAGAAUCCAGUGAUGUUGGAGUAAUCAAAUAAAUGAUAAUCAACAUAGGACCGGGCCAUAUAGAA [Same State - Tryptophan B (Freestyle 3)]” was run?
The value was 345 nM.

And the “apparent KD of K4 kissing-loop reporter” value (input ligand: arginine 13.2 mM)?
The value was 307 nM.

And the “apparent KD of K4 kissing-loop reporter” value (input ligand: none)?
Its value is 349 nM.

What about the “apparent KD of K4 kissing-loop reporter” value [1] of the same sequence?
The value was 351 nM.

What about the “apparent KD of K4 kissing-loop reporter” value [2] of the same sequence?
The value was 309 nM.

What does the source list for “AUGCAGUGAUGUUGCUUUGUAUAAACAGAUACCAGUGAAUUUUAACACCCUUGGCAGCUGAUAGAUUCUUAAUUCUAUUAUAUAA [JR_SSTheophyA_Sub020]”?
apparent KD of K4 kissing-loop reporter (input ligand: FMN 200 uM): 164 nM; apparent KD of K4 kissing-loop reporter (input ligand: arginine 13.2 mM): 189 nM; apparent KD of K4 kissing-loop reporter (input ligand: none): 165 nM; apparent KD of K4 kissing-loop reporter [1]: 197 nM; apparent KD of K4 kissing-loop reporter [2]: 140 nM

Which “apparent KD of K4 kissing-loop reporter” value (input ligand: FMN 200 uM) does the source give for “AAAUAUUCGAGUGAUGUUCGAUAAAUAUCAGAGGAUAUGCUUAAAAGCAGAAGGCUGUAUUUCUAUUUGUUAUGUAAUUUUAUAA [JR_SSFMNA_Sub021]” here?
Its value is 125 nM.

And the “apparent KD of K4 kissing-loop reporter” value (input ligand: arginine 13.2 mM)?
Its value is 160 nM.

And the “apparent KD of K4 kissing-loop reporter” value (input ligand: none)?
The value was 135 nM.

And the “apparent KD of K4 kissing-loop reporter” value [1]?
Its value is 154 nM.

And the “apparent KD of K4 kissing-loop reporter” value [2]?
The value was 91.4 nM.

With “GGAGGAGAAUAUGAUACCAGCAGAGAGAGAUACGAAGUAUAGUGAUGUUAUAUGAGAGAAUGCCCUUGGCAGCAUAAGACGCAGG [#08 K4 Theophylline B Same State]” as the sequence, how does the “apparent KD of K4 kissing-loop reporter” value (input ligand: FMN 200 uM) read?
The value was 86 nM.

And the “apparent KD of K4 kissing-loop reporter” value (input ligand: arginine 13.2 mM)?
The value was 83.3 nM.

What about the “apparent KD of K4 kissing-loop reporter” value (input ligand: none) of the same sequence?
The value was 116 nM.

And the “apparent KD of K4 kissing-loop reporter” value [1]?
The value was 95 nM.

And the “apparent KD of K4 kissing-loop reporter” value [2]?
The value was 84.8 nM.

How did the “apparent KD of K4 kissing-loop reporter” value (input ligand: FMN 200 uM) turn out when “GCAGACCGCAGUGAUGUUGCGAAAUCGGAAGGAGCGCGUGAAAACGCAGGUAGGUCGCCGACACAGGGAUUAUAACCCUGUUUGC [Arginine A K4 16]” was run?
The value was 173 nM.

And the “apparent KD of K4 kissing-loop reporter” value (input ligand: arginine 13.2 mM)?
The value was 196 nM.

What about the “apparent KD of K4 kissing-loop reporter” value (input ligand: none) of the same sequence?
The value was 207 nM.

And the “apparent KD of K4 kissing-loop reporter” value [1]?
The value was 176 nM.

What about the “apparent KD of K4 kissing-loop reporter” value [2] of the same sequence?
Its value is 154 nM.

Which “apparent KD of K4 kissing-loop reporter” value (input ligand: FMN 200 uM) does the source give for “ACGACGCAUAGUGAUACCAGCAUUAUAUGAGUGAUGUUCUACCUAAAAUGGUAAUAAUGAUGCCCUUGGCAGCACUAUGCGUCAG [KL-SSTheoB2]” here?
The value was 400 nM.

What about the “apparent KD of K4 kissing-loop reporter” value (input ligand: arginine 13.2 mM) of the same sequence?
Its value is 453 nM.

What about the “apparent KD of K4 kissing-loop reporter” value (input ligand: none) of the same sequence?
The value was 461 nM.

What about the “apparent KD of K4 kissing-loop reporter” value [1] of the same sequence?
Its value is 638 nM.

What about the “apparent KD of K4 kissing-loop reporter” value [2] of the same sequence?
The value was 283 nM.

Which “apparent KD of K4 kissing-loop reporter” value (input ligand: FMN 200 uM) does the source give for “CGUUUAUAGCAGGAUACCAGUACCCAUAAAGUACGUUAAUAGUAGAGUGAUGUUCUAAAGUACCCUUGGCAGCUUCGAGUGAGUG [ExTheophylB.R]” here?
Its value is 72.5 nM.

What about the “apparent KD of K4 kissing-loop reporter” value (input ligand: arginine 13.2 mM) of the same sequence?
The value was 114 nM.

What about the “apparent KD of K4 kissing-loop reporter” value (input ligand: none) of the same sequence?
Its value is 85.1 nM.

What about the “apparent KD of K4 kissing-loop reporter” value [1] of the same sequence?
The value was 103 nM.

And the “apparent KD of K4 kissing-loop reporter” value [2]?
The value was 54 nM.

“GCGGCCCAGCCGGAUACCAGUGAGCCGCUGGGAACCGCGGGCCCAGAGUGAUGUUCGGGACACCCUUGGCAGCCGCCUGGGUCGC [#2 Same State - Theophylline B Attempt #20 (HarryS)]” was tested. Which “apparent KD of K4 kissing-loop reporter” value (input ligand: FMN 200 uM) did it give?
The value was 486 nM.

What about the “apparent KD of K4 kissing-loop reporter” value (input ligand: arginine 13.2 mM) of the same sequence?
The value was 293 nM.

And the “apparent KD of K4 kissing-loop reporter” value (input ligand: none)?
The value was 643 nM.

What about the “apparent KD of K4 kissing-loop reporter” value [1] of the same sequence?
Its value is 301 nM.

And the “apparent KD of K4 kissing-loop reporter” value [2]?
The value was 491 nM.

“CCGGCCCGGCCGGAUACCAGUGCGCCGCAGGGAACGGCGGGCCCAGAGUGAUGUUCGGGACACCCUUGGCAGCCGCCUGGGUCGC [#2 Same State - Theophylline B Attempt #27 (HarryS)]” was tested. Which “apparent KD of K4 kissing-loop reporter” value (input ligand: FMN 200 uM) did it give?
The value was 286 nM.

What about the “apparent KD of K4 kissing-loop reporter” value (input ligand: arginine 13.2 mM) of the same sequence?
Its value is 123 nM.

And the “apparent KD of K4 kissing-loop reporter” value (input ligand: none)?
The value was 231 nM.

And the “apparent KD of K4 kissing-loop reporter” value [1]?
The value was 225 nM.

And the “apparent KD of K4 kissing-loop reporter” value [2]?
Its value is 245 nM.

What does the source list for “UGUACCGAGUCAGGAUAUCAUAAUAAAUGCAGUGAUGUUGCAAUAACCAGUACAAAAGUGCUGGAUUGAGAAGGGACUUGGUACU [FmnBS 5 #SwitchBubble #StaticStem]”?
apparent KD of K4 kissing-loop reporter (input ligand: FMN 200 uM): 99 nM; apparent KD of K4 kissing-loop reporter (input ligand: arginine 13.2 mM): 126 nM; apparent KD of K4 kissing-loop reporter (input ligand: none): 126 nM; apparent KD of K4 kissing-loop reporter [1]: 119 nM; apparent KD of K4 kissing-loop reporter [2]: 112 nM

What does the source list for “AGAACUGUCUGAGAUACCAGCUAAGGAGUGAUGUUCCUAGGUCCACGAAAGUGGACCCAUAGCCCUUGGCAGCUCAGACAGUUCA [#23 K4 Theophylline B Same State]”?
apparent KD of K4 kissing-loop reporter (input ligand: FMN 200 uM): 1280 nM; apparent KD of K4 kissing-loop reporter (input ligand: arginine 13.2 mM): 833 nM; apparent KD of K4 kissing-loop reporter (input ligand: none): 1370 nM; apparent KD of K4 kissing-loop reporter [1]: 674 nM; apparent KD of K4 kissing-loop reporter [2]: 1160 nM

“UUUUUUAGUUGAGUUAUACAUAGCGGACUAUAGGAUAUCUAGAAAUAGAGAAGGAUAAGAGUGAUGUUCUUAUUCAACUAUAGUG” was tested. Which “apparent KD of K4 kissing-loop reporter” value (input ligand: FMN 200 uM) did it give?
The value was 101 nM.

And the “apparent KD of K4 kissing-loop reporter” value (input ligand: arginine 13.2 mM)?
Its value is 87.4 nM.

And the “apparent KD of K4 kissing-loop reporter” value (input ligand: none)?
Its value is 90.9 nM.

What about the “apparent KD of K4 kissing-loop reporter” value [1] of the same sequence?
Its value is 109 nM.

What about the “apparent KD of K4 kissing-loop reporter” value [2] of the same sequence?
The value was 91.6 nM.

“AAGGUUGUGCAUGGGAGUGAUGUUCCCAAGCAGGAUAUCGCUCACGCGAGAAGGGCUAGCACAACCGCUCAAGAAACUUGAGCAA [Omei KL FMN A SS C v5]” was tested. Which “apparent KD of K4 kissing-loop reporter” value (input ligand: FMN 200 uM) did it give?
The value was 121 nM.

And the “apparent KD of K4 kissing-loop reporter” value (input ligand: arginine 13.2 mM)?
Its value is 118 nM.

And the “apparent KD of K4 kissing-loop reporter” value (input ligand: none)?
The value was 147 nM.

What about the “apparent KD of K4 kissing-loop reporter” value [1] of the same sequence?
The value was 132 nM.

And the “apparent KD of K4 kissing-loop reporter” value [2]?
The value was 120 nM.

Which “apparent KD of K4 kissing-loop reporter” value (input ligand: FMN 200 uM) does the source give for “AAACAUCACUGGGAGUGAUGUUCUCAGUGACGAGGACCGGUACGGCCGCCACUCGCGAGAGAUAUAGUCAAGUAAUGACUGCAUU [Excl Tryptophan A V9]” here?
Its value is 365 nM.

What about the “apparent KD of K4 kissing-loop reporter” value (input ligand: arginine 13.2 mM) of the same sequence?
The value was 309 nM.

What about the “apparent KD of K4 kissing-loop reporter” value (input ligand: none) of the same sequence?
Its value is 407 nM.

What about the “apparent KD of K4 kissing-loop reporter” value [1] of the same sequence?
The value was 375 nM.

And the “apparent KD of K4 kissing-loop reporter” value [2]?
The value was 413 nM.

Which “apparent KD of K4 kissing-loop reporter” value (input ligand: FMN 200 uM) does the source give for “UGACUGGACUGAAGGAGCGUUGAAGGAGCGUAAGUAGUGAUGUUGCUUACAGGUAGGUCGCAGCAGGUAGGUCGCAGUCUAGUCU” here?
Its value is 67.1 nM.

What about the “apparent KD of K4 kissing-loop reporter” value (input ligand: arginine 13.2 mM) of the same sequence?
The value was 43.7 nM.

And the “apparent KD of K4 kissing-loop reporter” value (input ligand: none)?
The value was 63 nM.

And the “apparent KD of K4 kissing-loop reporter” value [1]?
Its value is 54.3 nM.

And the “apparent KD of K4 kissing-loop reporter” value [2]?
The value was 52.6 nM.
